Measured values published in paper PMC6479881, “Structural Comparison of Enterococcus faecalis and Human Thymidylate Synthase Complexes with the Substrate dUMP and Its Analogue FdUMP Provides Hints about Enzyme Conformational Variabilities” (Molecules, 2019).

B1: human thymidylate synthase (enzyme)
chain: MPVAGSELPRRPLPPAAQERDAEPRPPHGELQYLGQIQHILRCGVRKDDRTGTGTLSVFGMQARYSLRDEFPLLTTKRVFWKGVLEELLWFIKGSTNAKELSSKGVKIWDANGSRDFLDSLGFSTREEGDLGPVYGFQWRHFGAEYRDMESDYSGQGVDQLQRVIDTIKTNPDDRRIIMCAWNPRDLPLMALPPCHALCQFYVVNSELSCQLYQRSGDMGLGVPFNIASYALLTYMIAHITGLKPGDFIHTLGDAHIYLNHIEPLKIQLQREPRPFPKLRILRKVEKIDDFKAEDFQIEGYNPHPTIKMEMAV
notes: Thymidylate synthase (EC 2.1.1.45), human, wild type; expressed from pQE-80L with a not-cleavable N-terminal His6-tag (twelve tag residues); the first twenty-five N-terminal residues and the tag were not traced in the structures; also called hTS; Human TS; source: E. coli BL21(DE3), purified (HisTrap HP); not shown: His6, N-terminal, kept
B2: Enterococcus faecalis thymidylate synthase (enzyme)
chain: MEEAYLALGKKILEEGHFKEDRTGTGTYSLFGYQMRFDLAKGFPLLTTKRVPFGLIKSELLWFLKGDTNIRYLLERNNHIWDEWAFERYVKSADYQGPDMTDFGHRVLQDPAFAEQYKEEHQKFCDAILNDAEFAEKYGELGNIYGAQWRHWETKDGSFIDQLANVIEMIKTNPDSRRLIVSAWNPEDVPSMALPPCHTMFQFYVNEGKLSCQLYQRSADVFLGVPFNIASYALLTHLIAHETGLEVGEFVHTLGDAHLYQNHVEQMQEQLSREVRSFPTLVLNPDKASVFDFDMEDIKVEGYDPHPTIKAPIAV
modifications: dUMP complex: Cys197 as S,S-(2-hydroxylethyl)thiocysteine (CME197) in subunits B and D, oxidized to sulfenic acid (S-oxycysteine, CSX197) in subunits A and C; FdUMP complex: Cys197 thiol reactive
notes: Thymidylate synthase (EC 2.1.1.45) of Enterococcus faecalis; The homodimer is asymmetric: 5-FTHF copurifies in one active site of each dimer; also called EfTS; TS; source: prepared according to an established procedure [5]; purified

Experiments:
[1] = target: the molecule itself; experiment: crystal structure; hTS 20 mg/mL in 50 mM HEPES pH 7.5, 30 mM NaCl, 20 mM beta-mercaptoethanol, with 40 mM dUMP or 2 mM FdUMP; precipitant 27-30 % PEG4000, 30 mM ammonium sulfate, 0.1 M TRIS pH 9; room temperature; space groups C2 or I2, one and half dimer in the ASU
[2] = target: the molecule itself; experiment: crystal structure; EfTS 7 mg/mL in 25 mM phosphate buffer pH 6.8, 2 mM DTT, with 100 mM dUMP or 4 mM FdUMP; precipitant 2.2-2.5 M ammonium sulfate, 0.1 M HEPES pH 7.5; room temperature; space group P21, two enzyme dimers in the ASU

Protein | binding result [1] | binding result [2]
B1 | binds | 
B2 |  | binds
